Test results as given in the supplement of paper PMC11246515.
± gives the standard deviation of the averaged measurements.

Assay: total protein half-life in vivo (active degradation + dilution); higher = more stable protein
[1] = E. coli NCM3722 delta-clpP delta-lon delta-hslV, growth: N-lim chemostat, doubling time 6 h
[2] = E. coli NCM3722 delta-clpP, growth: N-lim chemostat, doubling time 6 h
[3] = E. coli NCM3722 delta-hslV, growth: N-lim chemostat, doubling time 6 h
[4] = E. coli NCM3722 delta-lon, growth: N-lim chemostat, doubling time 6 h
[5] = E. coli NCM3722 delta-smpB, growth: N-lim chemostat, doubling time 6 h
[6] = wild type E. coli NCM3722, growth: C-lim chemostat, doubling time 3 h
[7] = wild type E. coli NCM3722, growth: C-lim chemostat, doubling time 6 h
[8] = wild type E. coli NCM3722, growth: C-lim chemostat, doubling time 12 h
[9] = wild type E. coli NCM3722, growth: N-lim chemostat, doubling time 6 h
[10] = wild type E. coli NCM3722, growth: N-lim chemostat, doubling time 12 h
[11] = wild type E. coli NCM3722, growth: P-lim chemostat, doubling time 6 h
[12] = wild type E. coli NCM3722, growth: P-lim chemostat, doubling time 12 h

MTMTRLKISKTLLAVMLTSAVATGSAYAENNAQTTNESAGQKVDSSMNKVGNFMDDSAITAKVKAALVDHDNIKSTDISVKTDQKVVTLSGFVESQAQAEEAVKVAKGVEGVTSVSDKLHVRDAKEGSVKGYAGDTATTSEIKAKLLADDIVPSRHVKVETTDGVVQLSGTVDSQAQSDRAESIAKAVDGVKSVKNDLKTK [P0AFH8]
total protein half-life in vivo [1]: 3.62 ± 0.17 h | total protein half-life in vivo [2]: 4.7 ± 0.28 h | total protein half-life in vivo [3]: 5.73 ± 0.24 h | total protein half-life in vivo [4]: 5.7 ± 0.33 h | total protein half-life in vivo [5]: 5.25 ± 0.3 h | total protein half-life in vivo [6]: 2.96 ± 0.067 h | total protein half-life in vivo [7]: 5.39 ± 0.2 h | total protein half-life in vivo [8]: 8.26 ± 2.2 h | total protein half-life in vivo [9]: 5.5 ± 0.26 h | total protein half-life in vivo [10]: 11.3 ± 0.17 h | total protein half-life in vivo [11]: 4.9 ± 0.15 h | total protein half-life in vivo [12]: 9.28 ± 0.88 h

MTNITLQKQHRTLWHFIPGLALSAVITGVALWGGSIPAVAGAGFSALTLAILLGMVLGNTIYPHIWKSCDGGVLFAKQYLLRLGIILYGFRLTFSQIADVGISGIIIDVLTLSSTFLLACFLGQKVFGLDKHTSWLIGAGSSICGAAAVLATEPVVKAEASKVTVAVATVVIFGTVAIFLYPAIYPLMSQWFSPETFGIYIGSTVHEVAQVVAAGHAISPDAENAAVISKMLRVMMLAPFLILLAARVKQLSGANSGEKSKITIPWFAILFIVVAIFNSFHLLPQSVVNMLVTLDTFLLAMAMAALGLTTHVSALKKAGAKPLLMALVLFAWLIVGGGAINYVIQSVIA
total protein half-life in vivo [2]: 2.86 h

MTNLNYQQTHFVMSAPDIRHLPSDTGIEVAFAGRSNAGKSSALNTLTNQKSLARTSKTPGRTQLINLFEVADGKRLVDLPGYGYAEVPEEMKRKWQRALGEYLEKRQSLQGLVVLMDIRHPLKDLDQQMIEWAVDSNIAVLVLLTKADKLASGARKAQLNMVREAVLAFNGDVQVETFSSLKKQGVDKLRQKLDTWFSEMQPVEETQDGE [P0A6P7]
total protein half-life in vivo [1]: 5.33 ± 0.22 h | total protein half-life in vivo [2]: 6.45 ± 1.6 h | total protein half-life in vivo [3]: 5.05 ± 0.074 h | total protein half-life in vivo [4]: 5.83 ± 0.38 h | total protein half-life in vivo [5]: 5.19 ± 0.42 h | total protein half-life in vivo [6]: 2.924 ± 0.022 h | total protein half-life in vivo [7]: 5.58 ± 0.19 h | total protein half-life in vivo [8]: 11.2 ± 0.46 h | total protein half-life in vivo [9]: 5.08 ± 0.32 h | total protein half-life in vivo [10]: 9.45 ± 0.2 h | total protein half-life in vivo [11]: 5.59 ± 0.11 h | total protein half-life in vivo [12]: 11.4 ± 0.91 h

MTNLPKFSTALLHPRYWLTWLGIGVLWLVVQLPYPVIYRLGCGLGKLALRFMKRRAKIVHRNLELCFPEMSEQERRKMVVKNFESVGMGLMETGMAWFWPDRRIARWTEVIGMEHIRDVQAQKRGILLVGIHFLTLELGARQFGMQEPGIGVYRPNDNPLIDWLQTWGRLRSNKSMLDRKDLKGMIKALKKGEVVWYAPDHDYGPRSSVFVPLFAVEQAATTTGTWMLARMSGACLVPFVPRRKPDGKGYQLIMLPPECSPPLDDAETTAAWMNKVVEKCIMMAPEQYMWLHRRFKTRPEGVPSRY [P0ACV0]
total protein half-life in vivo [1]: 6.85 h | total protein half-life in vivo [2]: 5.84 h | total protein half-life in vivo [3]: 6.63 h | total protein half-life in vivo [5]: 5.81 h | total protein half-life in vivo [7]: 7.93 h

MTNNPLIPQSKLPQLGTTIFTQMSALAQQHQAINLSQGFPDFDGPRYLQERLAHHVAQGANQYAPMTGVQALREAIAQKTERLYGYQPDADSDITVTAGATEALYAAITALVRNGDEVICFDPSYDSYAPAIALSGGIVKRMALQPPHFRVDWQEFAALLSERTRLVILNTPHNPSATVWQQADFAALWQAIAGHEIFVISDEVYEHINFSQQGHASVLAHPQLRERAVAVSSFGKTYHMTGWKVGYCVAPAPISAEIRKVHQYLTFSVNTPAQLALADMLRAEPEHYLALPDFYRQKRDILVNALNESRLEILPCEGTYFLLVDYSAVSTLDDVEFCQWLTQEHGVAAIPLSVFCADPFPHKLIRLCFAKKESTLLAAAERLRQL
total protein half-life in vivo [1]: 2.63 ± 0.15 h | total protein half-life in vivo [2]: 1.93 ± 0.071 h | total protein half-life in vivo [3]: 1.69 ± 0.11 h | total protein half-life in vivo [4]: 2.09 h | total protein half-life in vivo [5]: 2.01 ± 0.052 h | total protein half-life in vivo [6]: 2.48 ± 0.11 h | total protein half-life in vivo [7]: 3.9 ± 0.38 h | total protein half-life in vivo [8]: 5.92 ± 0.72 h | total protein half-life in vivo [9]: 1.95 h | total protein half-life in vivo [11]: 5.33 ± 1.2 h | total protein half-life in vivo [12]: 8.16 ± 1 h

MTNQPTEIAIVGGGMVGGALALGLAQHGFAVTVIEHAEPAPFVADSQPDVRISAISAASVSLLKGLGVWDAVQAMRCHPYRRLETWEWETAHVVFDAAELKLPLLGYMVENTVLQQALWQALEAHPKVTLRVPGSLIALHRHDDLQELELKGGEVIRAKLVIGADGANSQVRQMAGIGVHAWQYAQSCMLISVQCENDPGDSTWQQFTPDGPRAFLPLFDNWASLVWYDSPARIRQLQNMNMAQLQAEIAKHFPSRLGYVTPLAAGAFPLTRRHALQYVQPGLALVGDAAHTIHPLAGQGVNLGYRDVDALIDVLVNARSYGEAWASYPVLKRYQMRRMADNFIMQSGMDLFYAGFSNNLPPLRFMRNLGLMAAERAGVLKRQALKYALGL
total protein half-life in vivo [1]: 4.44 ± 0.19 h | total protein half-life in vivo [2]: 3.97 ± 0.055 h | total protein half-life in vivo [3]: 4.09 ± 0.076 h | total protein half-life in vivo [4]: 3.34 ± 0.071 h | total protein half-life in vivo [5]: 3.93 ± 0.044 h | total protein half-life in vivo [6]: 2.59 ± 0.043 h | total protein half-life in vivo [7]: 4.352 ± 0.0069 h | total protein half-life in vivo [8]: 7.53 ± 0.7 h | total protein half-life in vivo [9]: 3.808 ± 0.035 h | total protein half-life in vivo [10]: 7.16 ± 0.92 h | total protein half-life in vivo [11]: 4.49 ± 0.16 h | total protein half-life in vivo [12]: 7.66 ± 0.16 h

MTNRLVLSGTVCRAPLRKVSPSGIPHCQFVLEHRSVQEEAGFHRQAWCQMPVIVSGHENQAITHSITVGSRITVQGFISCHKAKNGLSKMVLHAEQIELIDSGD
total protein half-life in vivo [5]: 4.72 h | total protein half-life in vivo [6]: 2.97 h | total protein half-life in vivo [9]: 5.76 h | total protein half-life in vivo [12]: 15.6 h
